Reference: paper PMC4838357

Tests used:
Assay in all cases: MITOMI
[1] = biological target: Zif268 I28A (mouse, UniProt P08046 333-421, I359A)
[2] = biological target: Zif268 R14A (mouse, UniProt P08046 333-421, R345A)
[3] = biological target: Zif268 R70A (mouse, UniProt P08046 333-421, R401A)

Measured: binding result

B1: target_268wt (Zif268 consensus) (dsDNA)
DNA 1: GGCCAATTAGCGTGGGCGTTTTCCGGCGGTATGAC
DNA 2: GTCATACCGCCGGAAAACGCCCACGCTAATTGGCC
binds: all assays above
